In the supplement of paper PMC10065799, “High-throughput profiling of sequence recognition by tyrosine kinases and SH2 domains using bacterial peptide display” (eLife, 2023):

Legend:
c-Src SH2 = assay: SH2 binding enrichment of the phosphorylated peptide, bacterial display (enrichment ratio); higher = better substrate or ligand; peptides without Tyr show the background
Grb2 SH2 = Grb2 SH2 (UniProt P62993); assay: as above
SHP2-C SH2 = assay: as above
FGFR1 = FGFR1 (UniProt P11362); assay: phosphorylation enrichment, bacterial display (enrichment ratio); higher = better substrate or ligand; peptides without Tyr show the background
c-Src = assay: as above
Hck = Hck (UniProt P08631); assay: as above
Jak2 = Jak2 (UniProt O60674); assay: as above
AncSZ = assay: as above
FGFR3 = FGFR3 (UniProt P22607); assay: as above
EPHB1 = EPHB1 (UniProt P54762); assay: as above
c-Abl (mouse) = assay: as above
Fyn = Fyn (UniProt P06241); assay: as above
Fer (mouse) = assay: as above
MERTK = MERTK (UniProt Q12866); assay: as above
EPHB2 = EPHB2 (UniProt P29323); assay: as above
Fes = Fes (UniProt P07332); assay: as above
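Throughout, for SH2 binding enrichment of the phosphorylated peptide, bacterial display: peptide library displayed on the E. coli surface as eCPX fusions, selected cells deep-sequenced, score is each peptide's frequency after selection divided by its frequency in the input.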
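Throughout, for phosphorylation enrichment, bacterial display: 11-residue human phosphosite peptides and single-mutation variants displayed on the E. coli surface, counted by deep sequencing, each peptide's frequency after selection divided by its frequency in the unselected input library; frequency after pTyr selection over input frequency; kinase dosed for 20-30% of maximal phosphorylation in three min.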

Sequence of FGFR1 (P11362 whole entry, looked up): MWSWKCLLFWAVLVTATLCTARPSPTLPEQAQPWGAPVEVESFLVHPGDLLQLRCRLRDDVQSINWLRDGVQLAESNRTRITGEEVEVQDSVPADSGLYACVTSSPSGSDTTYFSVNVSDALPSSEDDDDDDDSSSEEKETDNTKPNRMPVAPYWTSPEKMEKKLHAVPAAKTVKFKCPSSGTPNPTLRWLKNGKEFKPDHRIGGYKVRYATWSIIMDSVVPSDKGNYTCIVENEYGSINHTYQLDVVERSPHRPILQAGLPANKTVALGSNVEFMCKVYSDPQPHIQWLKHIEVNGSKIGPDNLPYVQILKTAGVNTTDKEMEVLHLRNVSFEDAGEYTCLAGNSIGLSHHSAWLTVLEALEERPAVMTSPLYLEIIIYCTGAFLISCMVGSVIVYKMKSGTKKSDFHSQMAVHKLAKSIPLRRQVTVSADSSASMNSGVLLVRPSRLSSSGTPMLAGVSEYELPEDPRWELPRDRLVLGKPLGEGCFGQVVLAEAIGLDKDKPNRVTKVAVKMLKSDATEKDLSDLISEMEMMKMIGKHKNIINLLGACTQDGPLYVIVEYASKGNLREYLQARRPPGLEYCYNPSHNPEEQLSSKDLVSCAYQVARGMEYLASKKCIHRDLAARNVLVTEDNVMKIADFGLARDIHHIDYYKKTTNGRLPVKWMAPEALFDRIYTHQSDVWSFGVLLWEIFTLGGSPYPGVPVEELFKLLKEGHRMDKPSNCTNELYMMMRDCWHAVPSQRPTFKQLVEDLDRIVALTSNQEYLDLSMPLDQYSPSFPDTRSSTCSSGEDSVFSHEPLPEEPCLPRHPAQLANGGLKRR
Sequence of EPHB2 (P29323 whole entry, looked up): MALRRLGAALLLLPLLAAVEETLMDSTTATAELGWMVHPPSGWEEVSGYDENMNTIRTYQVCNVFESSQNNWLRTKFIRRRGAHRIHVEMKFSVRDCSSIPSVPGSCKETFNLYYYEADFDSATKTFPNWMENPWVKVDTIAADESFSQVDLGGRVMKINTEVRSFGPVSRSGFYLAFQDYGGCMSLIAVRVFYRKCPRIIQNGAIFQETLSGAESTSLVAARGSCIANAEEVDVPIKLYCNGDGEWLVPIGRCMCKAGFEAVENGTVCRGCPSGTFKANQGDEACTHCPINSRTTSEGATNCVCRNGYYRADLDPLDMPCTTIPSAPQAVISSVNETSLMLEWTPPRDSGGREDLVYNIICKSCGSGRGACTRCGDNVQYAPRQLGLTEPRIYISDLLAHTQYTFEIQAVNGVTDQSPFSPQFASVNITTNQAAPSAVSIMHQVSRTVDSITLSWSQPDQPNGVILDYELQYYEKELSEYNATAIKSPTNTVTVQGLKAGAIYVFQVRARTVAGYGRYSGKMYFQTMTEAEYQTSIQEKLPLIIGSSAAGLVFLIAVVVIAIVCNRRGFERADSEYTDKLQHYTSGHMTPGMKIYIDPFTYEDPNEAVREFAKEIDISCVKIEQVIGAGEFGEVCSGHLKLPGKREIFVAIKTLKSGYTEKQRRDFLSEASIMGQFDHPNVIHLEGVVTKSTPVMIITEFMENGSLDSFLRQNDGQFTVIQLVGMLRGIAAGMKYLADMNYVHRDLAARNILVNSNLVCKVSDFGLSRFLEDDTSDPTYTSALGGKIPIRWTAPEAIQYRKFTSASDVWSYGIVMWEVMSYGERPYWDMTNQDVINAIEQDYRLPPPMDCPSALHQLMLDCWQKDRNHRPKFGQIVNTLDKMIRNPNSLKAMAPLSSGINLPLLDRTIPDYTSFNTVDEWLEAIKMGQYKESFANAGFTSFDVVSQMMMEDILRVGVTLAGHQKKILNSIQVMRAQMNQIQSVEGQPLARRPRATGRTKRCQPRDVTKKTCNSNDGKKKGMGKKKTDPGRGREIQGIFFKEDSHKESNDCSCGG
Sequence of Fes (P07332 whole entry, looked up, the tested form may be a part): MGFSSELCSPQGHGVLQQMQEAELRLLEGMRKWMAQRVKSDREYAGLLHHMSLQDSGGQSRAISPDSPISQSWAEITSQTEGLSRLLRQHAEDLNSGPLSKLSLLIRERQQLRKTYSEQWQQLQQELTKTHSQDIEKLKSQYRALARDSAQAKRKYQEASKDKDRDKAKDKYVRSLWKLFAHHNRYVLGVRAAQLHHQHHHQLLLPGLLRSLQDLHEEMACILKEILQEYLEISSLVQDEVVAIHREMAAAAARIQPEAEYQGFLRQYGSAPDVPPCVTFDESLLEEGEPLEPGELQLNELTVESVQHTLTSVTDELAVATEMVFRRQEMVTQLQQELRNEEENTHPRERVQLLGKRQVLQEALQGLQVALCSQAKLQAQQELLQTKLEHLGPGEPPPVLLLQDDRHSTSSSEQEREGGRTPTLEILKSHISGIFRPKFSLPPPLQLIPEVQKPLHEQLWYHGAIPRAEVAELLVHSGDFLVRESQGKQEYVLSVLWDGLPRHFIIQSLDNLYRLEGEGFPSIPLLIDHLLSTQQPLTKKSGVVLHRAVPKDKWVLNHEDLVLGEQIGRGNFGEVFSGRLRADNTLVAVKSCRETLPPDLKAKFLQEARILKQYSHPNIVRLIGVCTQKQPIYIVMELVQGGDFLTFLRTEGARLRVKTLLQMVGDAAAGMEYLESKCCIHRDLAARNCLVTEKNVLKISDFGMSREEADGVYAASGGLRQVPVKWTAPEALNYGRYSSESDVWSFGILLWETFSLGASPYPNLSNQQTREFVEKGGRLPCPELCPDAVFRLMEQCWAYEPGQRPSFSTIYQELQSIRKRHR
Sequence of Hck (P08631 whole entry, looked up): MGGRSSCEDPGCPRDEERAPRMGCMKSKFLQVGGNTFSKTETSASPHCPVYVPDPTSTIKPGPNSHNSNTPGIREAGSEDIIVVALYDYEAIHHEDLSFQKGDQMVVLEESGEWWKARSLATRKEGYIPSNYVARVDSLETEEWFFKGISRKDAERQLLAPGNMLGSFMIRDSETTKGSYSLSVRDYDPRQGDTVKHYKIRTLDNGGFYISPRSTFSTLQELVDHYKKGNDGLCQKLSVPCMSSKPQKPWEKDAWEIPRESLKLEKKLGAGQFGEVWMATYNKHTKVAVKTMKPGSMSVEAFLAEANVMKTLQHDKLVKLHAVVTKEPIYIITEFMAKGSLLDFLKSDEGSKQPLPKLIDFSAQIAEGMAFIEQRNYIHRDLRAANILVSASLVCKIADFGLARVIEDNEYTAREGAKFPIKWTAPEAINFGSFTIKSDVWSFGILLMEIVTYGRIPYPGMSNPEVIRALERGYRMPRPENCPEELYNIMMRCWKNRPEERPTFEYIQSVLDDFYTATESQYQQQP
Sequence of Jak2 (O60674 whole entry, looked up): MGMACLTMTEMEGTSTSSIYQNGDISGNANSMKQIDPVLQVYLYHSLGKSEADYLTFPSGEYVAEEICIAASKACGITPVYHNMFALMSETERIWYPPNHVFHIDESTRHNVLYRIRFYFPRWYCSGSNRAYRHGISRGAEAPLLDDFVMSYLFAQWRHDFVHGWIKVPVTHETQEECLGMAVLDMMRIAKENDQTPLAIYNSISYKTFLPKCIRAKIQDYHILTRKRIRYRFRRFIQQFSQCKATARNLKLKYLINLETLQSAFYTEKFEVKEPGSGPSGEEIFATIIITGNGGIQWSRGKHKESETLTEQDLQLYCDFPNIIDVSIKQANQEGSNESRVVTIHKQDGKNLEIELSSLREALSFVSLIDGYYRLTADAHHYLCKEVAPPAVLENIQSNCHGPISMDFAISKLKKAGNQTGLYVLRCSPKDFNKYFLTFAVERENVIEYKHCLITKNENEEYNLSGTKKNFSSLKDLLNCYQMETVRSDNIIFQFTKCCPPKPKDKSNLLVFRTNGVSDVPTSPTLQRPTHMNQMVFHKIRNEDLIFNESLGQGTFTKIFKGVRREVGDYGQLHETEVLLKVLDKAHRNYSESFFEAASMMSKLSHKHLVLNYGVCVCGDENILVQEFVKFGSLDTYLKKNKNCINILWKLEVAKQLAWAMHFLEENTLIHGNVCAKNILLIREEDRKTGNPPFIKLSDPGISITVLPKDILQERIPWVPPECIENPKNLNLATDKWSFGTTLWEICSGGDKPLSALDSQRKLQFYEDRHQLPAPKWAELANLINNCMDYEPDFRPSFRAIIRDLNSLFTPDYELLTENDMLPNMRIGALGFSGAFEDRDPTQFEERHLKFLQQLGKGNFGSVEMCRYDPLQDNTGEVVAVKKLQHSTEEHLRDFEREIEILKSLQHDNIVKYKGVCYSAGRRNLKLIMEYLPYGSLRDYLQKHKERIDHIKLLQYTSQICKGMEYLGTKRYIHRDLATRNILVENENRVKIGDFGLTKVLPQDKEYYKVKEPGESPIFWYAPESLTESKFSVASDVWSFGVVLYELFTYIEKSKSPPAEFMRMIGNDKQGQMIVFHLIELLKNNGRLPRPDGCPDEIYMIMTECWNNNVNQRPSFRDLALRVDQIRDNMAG
Sequence of Fyn (P06241 whole entry, looked up): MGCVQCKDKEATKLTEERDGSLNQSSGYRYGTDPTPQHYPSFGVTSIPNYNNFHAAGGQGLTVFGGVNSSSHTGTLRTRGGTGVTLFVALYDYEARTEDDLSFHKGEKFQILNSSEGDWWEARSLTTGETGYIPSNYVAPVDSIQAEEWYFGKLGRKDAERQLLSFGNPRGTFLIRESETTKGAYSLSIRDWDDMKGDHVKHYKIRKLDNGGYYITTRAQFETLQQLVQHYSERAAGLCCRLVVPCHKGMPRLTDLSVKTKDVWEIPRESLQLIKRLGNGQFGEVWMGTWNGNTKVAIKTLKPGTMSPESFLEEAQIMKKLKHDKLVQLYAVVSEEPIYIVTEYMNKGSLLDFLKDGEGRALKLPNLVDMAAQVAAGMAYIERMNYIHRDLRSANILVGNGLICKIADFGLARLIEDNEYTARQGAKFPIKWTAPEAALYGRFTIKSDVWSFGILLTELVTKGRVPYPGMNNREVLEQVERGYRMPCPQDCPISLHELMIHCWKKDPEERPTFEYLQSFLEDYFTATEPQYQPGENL

SH2 binding enrichment (c-Src SH2)	SH2 binding enrichment (Grb2 SH2)	SH2 binding enrichment (SHP2-C SH2)	Sequence	phosphorylation enrichment (FGFR1)	phosphorylation enrichment (c-Src)	phosphorylation enrichment (Hck)	phosphorylation enrichment (Jak2)	phosphorylation enrichment (AncSZ)	phosphorylation enrichment (FGFR3)	phosphorylation enrichment (EPHB1)	phosphorylation enrichment (c-Abl (mouse))	phosphorylation enrichment (Fyn)	phosphorylation enrichment (Fer (mouse))	phosphorylation enrichment (MERTK)	phosphorylation enrichment (EPHB2)	phosphorylation enrichment (Fes)
0.417	0.901	0.696	EASEQYLTKAS [NRCAM_Y739]	0.571	0.458	0.43	0.793	0.711	0.556	0.424	0.798	0.496	0.463	0.485	0.425	0.802
0.716	1.06	0.878	KWELRYMHSRV [ABCD1_Y281_G277W]	0.393	0.37	0.474	1.07	1.09	0.685	0.517	0.759	0.458	0.457	0.369	0.528	1.31
0.519	0.876	0.74	PSGPTYRGAVP [ASAH1_Y43]	0.58	0.878	0.583	0.611	0.772	0.503	0.757	0.489	0.602	0.417	0.58	0.509	0.698
0.988	0.924	0.914	CTTIHSNFMCN [TP53_Y234_Y234S_YF]	0.508	0.454	0.43	0.729	0.695	0.55	0.448	0.507	0.416	0.429	0.405	0.555	0.832
0.472	0.812	0.553	STEAIYRRFSK [SH3PXD2B_Y42_YF]	0.493	0.45	0.379	0.353	0.431	0.408	0.334	1.2	0.506	0.402	0.372	0.293	0.486
0.601	0.615	0.721	PMQMPYDSRWE [PDGFRA_Y582_L580M]	0.865	1.49	0.794	2.03	1.52	1.1	0.835	1.96	0.374	0.671	0.728	0.801	1.47
0.631	0.93	0.793	KDHPDYKYQLR [SOX10_Y171_P175L]	0.432	0.411	0.431	0.656	0.665	0.491	0.417	0.696	0.403	0.418	0.38	0.395	0.704
1.32	1.5	1.32	GCKNRYDKGKP [THAP1_Y14_D17G]	0.387	0.406	0.496	0.876	0.597	1.04	0.481	0.798	0.434	0.4	0.408	0.469	0.867
0.336	0.685	0.657	TESALYGCTVV [KIAA1804_Y724_L729V]	0.517	4.43	4.37	1.17	1.18	0.802	0.783	0.888	5.73	5	1.83	0.833	1.43
0.516	0.52	0.482	QISQDYGVLLE [PRDX3_Y172_R170Q]	0.851	0.981	0.743	1.32	1.37	0.792	0.876	1.18	0.828	0.673	0.603	1.21	1.69
0.515	0.824	0.852	VGSEDYGWDLT [SPTAN1_Y1792_R1794W]	0.489	0.419	0.443	0.967	1.2	0.726	0.602	0.724	0.384	0.463	0.36	0.732	1.16
0.466	0.741	0.753	QPGTDYKIYLY [FN1_Y1970]	0.705	0.804	0.86	1.69	1.74	0.846	0.939	1.04	0.715	0.792	0.501	0.759	1.55
0.444	0.757	0.509	WQQQSYLDSVI [CTNNB1_Y30_G34V]	0.579	0.496	0.529	0.908	0.983	0.716	0.511	0.806	0.504	0.469	0.406	0.668	1.03
0.462	0.946	0.724	TKFRNYLIPNG [CYP2C8_Y379_K383N]	0.458	0.484	0.432	0.536	0.68	0.502	0.527	0.631	0.553	0.394	0.495	0.736	0.679
0.858	1.23	0.808	KKYPDYIQIAR [SGMS2_Y59_M64R]	3.97	0.47	0.48	1.28	0.98	2.55	7.96	0.702	0.367	0.388	0.392	1.22	0.984
1.29	1.36	2	LQTYHYHGHSM [PDHA1_Y289_R288H]	1.16	0.916	0.742	1.52	0.974	0.963	0.689	0.559	0.671	0.75	0.911	0.636	0.943
